Test [1] addresses T1, Galectin-3 (UniProt P17931 1-250, limits assumed).
T1 construct: also called Gal3; GAL3
The test is described as follows: BLI binding activity; DP stored at 5° C. for 1 month.

The target of test [2] is T1, Galectin-3. The test is described as follows: BLI binding activity; DP stored at 25° C. for 1 month. A general note: In BLI a coated tip is dipped into the sample, and binding shifts an interference pattern.
Test [3] deals with T1, Galectin-3. The test is described as follows: BLI binding activity; DP stored at 5° C. for 3 months.
In test [4] the target is T1, Galectin-3. The test is described as follows: BLI binding activity; DP stored at 5° C. for 6 months.
In test [5] the target is T1, Galectin-3. The test is described as follows: BLI binding activity; DP stored at 5° C. for 9 months.
Test [6] has as its target T1, Galectin-3. The test is described as follows: BLI binding activity; DP stored at 25° C. for 3 months.
Test [7] has as its target T1, Galectin-3. The test is described as follows: BLI binding activity; DP stored at 25° C. for 6 months.
The target of test [8] is T1, Galectin-3. The test is described as follows: BLI binding activity; DP stored at 5° C. for 12 months.
Test [9] has as its target T1, Galectin-3. The test is described as follows: BLI binding activity; DP stored at 5° C. for 18 months.
The target in test [10] is T1, Galectin-3. The test is described as follows: ELISA biological activity (blocking ELISA, blocked partner not named); DP stored at 5° C. for 1 month. On the technique in general: In an ELISA, binding on a coated surface is turned into a signal by an enzyme label.
Test [11] addresses T1, Galectin-3. Put plainly: ELISA biological activity (blocking ELISA, blocked partner not named); DP stored at 25° C. for 1 month.
Test [12] has as its target T1, Galectin-3. Put plainly: ELISA biological activity (blocking ELISA, blocked partner not named); DP stored at 5° C. for 3 months.
In test [13] the target is T1, Galectin-3. The test is described as follows: ELISA biological activity (blocking ELISA, blocked partner not named); DP stored at 5° C. for 6 months.
The target of test [14] is T1, Galectin-3. Put plainly: ELISA biological activity (blocking ELISA, blocked partner not named); DP stored at 5° C. for 9 months.
Test [15] deals with T1, Galectin-3. The test is described as follows: ELISA biological activity (blocking ELISA, blocked partner not named); DP stored at 25° C. for 3 months.
Test [16] deals with T1, Galectin-3. The test is described as follows: ELISA biological activity (blocking ELISA, blocked partner not named); DP stored at 25° C. for 6 months.
The target of test [17] is T1, Galectin-3. The test is described as follows: ELISA biological activity (blocking ELISA, blocked partner not named); DP stored at 5° C. for 12 months.
The target of test [18] is T1, Galectin-3. Put plainly: ELISA biological activity (blocking ELISA, blocked partner not named); DP stored at 5° C. for 18 months.
Test [19] addresses T1, Galectin-3. The test is described as follows: ELISA biological activity (blocking ELISA, blocked partner not named); 20 mg/mL DP, time 0; Time 0 (control), 20 mg/mL DP.

T1 sequence (P17931 whole entry): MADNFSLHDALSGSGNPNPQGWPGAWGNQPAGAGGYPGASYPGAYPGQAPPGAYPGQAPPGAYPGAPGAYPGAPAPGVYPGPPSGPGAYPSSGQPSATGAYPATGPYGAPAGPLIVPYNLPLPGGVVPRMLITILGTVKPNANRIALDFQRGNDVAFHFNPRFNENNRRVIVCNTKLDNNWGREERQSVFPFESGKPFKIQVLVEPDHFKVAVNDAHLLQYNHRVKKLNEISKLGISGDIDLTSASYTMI

B1: TB006 (antibody, human IgG4 S228P, kappa, V domains shown)
VH: QVQLVQSGAEVKKPGASVKVSCKASGYSFTNYYMHWVRQAPGQRLEWMGWIYPGSGNTNYNEKFQGRVTITADTSASTAYMELSSLRSEDTAVYYCSTAPGGFDVWGQGTTVTVSS
VL: DIVMTQTPLSLSVTPGQPASISCKSSKSLLHSDGITYLYWYLQKPGQSPQLLIYRMSNLASGVPDRFSGSGSGTDFTLKISRVEAEDVGVYYCAQMLEFPLTFGQGTKLEIKR
notes: Tested as drug product at 20 mg/mL in 20 mM L-histidine, 5 mM methionine, 100 mM NaCl, 0.02% polysorbate-80, pH 5.8; also called 4A11.H3L1; IMT006a
For B1, the Kd (in general, a measure of binding affinity in units of concentration) amounted to 2.5 nM in the test with Galectin-3 [1]; 2.5 nM with Galectin-3 [2]; 3 nM with Galectin-3 [3]; 3.5 nM in the test with Galectin-3 [4]; 2.5 nM in the test with Galectin-3 [5]; 3.1 nM with Galectin-3 [6]. The Kd with Galectin-3 [7] came out at 3.7 nM; with Galectin-3 [8], 3.1 nM; with Galectin-3 [9], 2 nM. Also, the IC50 (as a rule, the concentration that inhibits the measured activity by half) with Galectin-3 [10] stood at 1.8 µg/mL; in the test with Galectin-3 [11], 1.8 µg/mL; in the test with Galectin-3 [12], 1.5 µg/mL; in the test with Galectin-3 [13], 1.5 µg/mL; in the test with Galectin-3 [14] it was 1.2 µg/mL; in the test with Galectin-3 [15], 1.5 µg/mL. The IC50 came to 1.5 µg/mL in the test with Galectin-3 [16], 1.5 µg/mL in the test with Galectin-3 [17], 1.8 µg/mL in the test with Galectin-3 [18] and 2.5 µg/mL with Galectin-3 [19].
